Test results from US20240400715A1 (VIBRANT PHARMA, published 2024).
Where a chain is given by its changes, count along the chain named. Several values for one entry are separate records, joined by “and”; a condition that tells them apart may be missing. Equal entries are not always repeated.

B1: Fab (Heavy)-Knob+Fab (Light)-Hole-CEA (208) (bispecific antibody, human IgG4 S228P, kappa, F234A L235A)
heavy: EVKLLESGGGLVQPKGSLKLSCAASGFTFNTYAMNWVRQAPGKGLEWVARIRSKYNNYATYYADSVKDRFTISRDDSQSILYLQMNNLKTEDTAMYYCVRHGNFGNSYVSWFAYWGQGTLVTVSSASTKGPSVFPLAPCSRSTSESTAALGCLVKDYFPEPVTVSWNSGALTSGVHTFPAVLQSSGLYSLSSVVTVPSSSLGTKTYTCNVDHKPSNTKVDKRVESKYGPPCPPCPAPEAAGGPSVFLFPPKPKDTLMISRTPEVTCVVVDVSQEDPEVQFNWYVDGVEVHNAKTKPREEQFNSTYRVVSVLTVLHQDWLNGKEYKCKVSNKGLPSSIEKTISKAKGQPREPQVYTLPPCQEEMTKNQVSLWCLVKGFYPSDIAVEWESNGQPENNYKTTPPVLDSDGSFFLYSRLTVDKSRWQEGNVFSCSVMHEALHNHYTQKSLSLSL
chain: QAVVTQESALTTSPGETVTLTCRSSTGAVTTSNYANWVQEKPDHLFTGLIGGTNKRAPGVPARFSGSLIGDKAALTITGAQTEDEAIYFCALWYSNLWVFGGGTKVEIKRTVAAPSVFIFPPSDEQLKSGTASVVCLLNNFYPREAKVQWKVDNALQSGNSQESVTEQDSKDSTYSLSSTLTLSKADYEKHKVYACEVTHQGLSSPVTKSFNRGECESKYGPPCPPCPAPEAAGGPSVFLFPPKPKDTLMISRTPEVTCVVVDVSQEDPEVQFNWYVDGVEVHNAKTKPREEQFNSTYRVVSVLTVLHQDWLNGKEYKCKVSNKGLPSSIEKTISKAKGQPREPQVCTLPPSQEEMTKNQVSLSCAVKGFYPSDIAVEWESNGQPENNYKTTPPVLDSDGSFFLVSRLTVDKSRWQEGNVFSCSVMHEALHNRFTQKSLSLSLGGGGSGGGGSEVQLVESGGGFVQAGESLTLSCTSSTLTFTPYRMAWYRQAPGKQRDLVADISSGDGRTTNYADFAKGRFTISRDNIKNTVFLRMTNLKPEDTAVYYCNTFVSFVGIARSWGQGTQVTVSS
notes: Two-chain format; human IgG4 knob-into-hole Fc
B2: Fab (Light)-Knob-CEA+Fab (Heavy)-Hole (209) (bispecific antibody, human IgG4 S228P, kappa, F234A L235A)
chain: B1 chain with C347Y, S352C, S364W, A366L, V405Y, R433H, F434Y
heavy: B1 heavy with Y354C, C359S, W371S, L373A, Y412V, H440R, Y441F
notes: as for B1
B3: CEA-Knob-Fab-+Hole (107) (bispecific antibody, human IgG4 S228P, kappa, F234A L235A)
heavy: EVQLVESGGGFVQAGESLTLSCTSSTLTFTPYRMAWYRQAPGKQRDLVADISSGDGRTTNYADFAKGRFTISRDNIKNTVFLRMTNLKPEDTAVYYCNTFVSFVGIARSWGQGTQVTVSSESKYGPPCPPCPAPEAAGGPSVFLFPPKPKDTLMISRTPEVTCVVVDVSQEDPEVQFNWYVDGVEVHNAKTKPREEQFNSTYRVVSVLTVLHQDWLNGKEYKCKVSNKGLPSSIEKTISKAKGQPREPQVYTLPPCQEEMTKNQVSLWCLVKGFYPSDIAVEWESNGQPENNYKTTPPVLDSDGSFFLYSRLTVDKSRWQEGNVFSCSVMHEALHNHYTQKSLSLSLGGGGSGGGGEVKLLESGGGLVQPKGSLKLSCAASGFTFNTYAMNWVRQAPGKGLEWVARIRSKYNNYATYYADSVKDRFTISRDDSQSILYLQMNNLKTEDTAMYYCVRHGNFGNSYVSWFAYWGQGTLVTVSSASTKGPSVFPLAPCSRSTSESTAALGCLVKDYFPEPVTVSWNSGALTSGVHTFPAVLQSSGLYSLSSVVTVPSSSLGTKTYTCNVDHKPSNTKVDKRV
chain: ESKYGPPCPPCPAPEAAGGPSVFLFPPKPKDTLMISRTPEVTCVVVDVSQEDPEVQFNWYVDGVEVHNAKTKPREEQFNSTYRVVSVLTVLHQDWLNGKEYKCKVSNKGLPSSIEKTISKAKGQPREPQVCTLPPSQEEMTKNQVSLSCAVKGFYPSDIAVEWESNGQPENNYKTTPPVLDSDGSFFLVSRLTVDKSRWQEGNVFSCSVMHEALHNRFTQKSLSLSL
light: QAVVTQESALTTSPGETVTLTCRSSTGAVTTSNYANWVQEKPDHLFTGLIGGTNKRAPGVPARFSGSLIGDKAALTITGAQTEDEAIYFCALWYSNLWVFGGGTKVEIKRTVAAPSVFIFPPSDEQLKSGTASVVCLLNNFYPREAKVQWKVDNALQSGNSQESVTEQDSKDSTYSLSSTLTLSKADYEKHKVYACEVTHQGLSSPVTKSFNRGEC
notes: Anti-CD3 TA1 Fab + anti-CEA VHH C17 on human IgG4 knob-into-hole Fc
B4: Knob-Fab+CEA-Hole (108) (bispecific antibody, human IgG4 S228P, kappa, F234A L235A)
heavy: ESKYGPPCPPCPAPEAAGGPSVFLFPPKPKDTLMISRTPEVTCVVVDVSQEDPEVQFNWYVDGVEVHNAKTKPREEQFNSTYRVVSVLTVLHQDWLNGKEYKCKVSNKGLPSSIEKTISKAKGQPREPQVYTLPPCQEEMTKNQVSLWCLVKGFYPSDIAVEWESNGQPENNYKTTPPVLDSDGSFFLYSRLTVDKSRWQEGNVFSCSVMHEALHNHYTQKSLSLSLGGGGSGGGGSEVKLLESGGGLVQPKGSLKLSCAASGFTFNTYAMNWVRQAPGKGLEWVARIRSKYNNYATYYADSVKDRFTISRDDSQSILYLQMNNLKTEDTAMYYCVRHGNFGNSYVSWFAYWGQGTLVTVSSASTKGPSVFPLAPCSRSTSESTAALGCLVKDYFPEPVTVSWNSGALTSGVHTFPAVLQSSGLYSLSSVVTVPSSSLGTKTYTCNVDHKPSNTKVDKRV
chain: EVQLVESGGGFVQAGESLTLSCTSSTLTFTPYRMAWYRQAPGKQRDLVADISSGDGRTTNYADFAKGRFTISRDNIKNTVFLRMTNLKPEDTAVYYCNTFVSFVGIARSWGQGTQVTVSSESKYGPPCPPCPAPEAAGGPSVFLFPPKPKDTLMISRTPEVTCVVVDVSQEDPEVQFNWYVDGVEVHNAKTKPREEQFNSTYRVVSVLTVLHQDWLNGKEYKCKVSNKGLPSSIEKTISKAKGQPREPQVCTLPPSQEEMTKNQVSLSCAVKGFYPSDIAVEWESNGQPENNYKTTPPVLDSDGSFFLVSRLTVDKSRWQEGNVFSCSVMHEALHNRFTQKSLSLSL
light: B3 light
notes: as for B3
B5: 308 (TA3), configuration of FIG. 1X (bispecific antibody, IgG4)
heavy: EVQLVESGGGLVQPGGSLRLSCAASGYSFTGYTMNWVRQAPGKGLEWVALINPYKGVSTYNQKFKDRFTISVDKSKNTAYLQMNSLRAEDTAVYYCARSGYYGDSDWYFDVWGQGTLVTVSSASTKGPSVFPLAPCSRSTSESTAALGCLVKDYFPEPVTVSWNSGALTSGVHTFPAVLQSSGLYSLSSVVTVPSSSLGTKTYTCNVDHKPSNTKVDKRVESKYGPPCPPCPAPEAAGGPSVFLFPPKPKDTLMISRTPEVTCVVVDVSQEDPEVQFNWYVDGVEVHNAKTKPREEQFNSTYRVVSVLTVLHQDWLNGKEYKCKVSNKGLPSSIEKTISKAKGQPREPQVYTLPPCQEEMTKNQVSLWCLVKGFYPSDIAVEWESNGQPENNYKTTPPVLDSDGSFFLYSRLTVDKSRWQEGNVFSCSVMHEALHNHYTQKSLSLSLGGGGSGGGGSEVQLVESGGGFVQAGESLTLSCTSSTLTFTPYRMAWYRQAPGKQRDLVADISSGDGRTTNYADFAKGRFTISRDNIKNTVFLRMTNLKPEDTAVYYCNTFVSFVGIARSWGQGTQVTVSS
chain: B3 chain
light: DIQMTQSPSSLSASVGDRVTITCRASQDIRNYLNWYQQKPGKAPKLLIYYTSRLESGVPSRFSGSGSGTDYTLTISSLQPEDFATYYCQQGNTLPWTFGQGTKVEIK
notes: chains put together from parts; IgG4, kappa; not shown: kappa light chain constant domain (CL)

molecular target: T1, human CD3 on Jurkat cells (human, UniProt P07766 23-207; P04234 22-171; P09693 23-182); test: FACS, Jurkat cells;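 note: flow cytometric binding of bispecific antibodies to Jurkat T cells, threefold serial dilutions incubated half an hour in the cold, EC50 taken from the fitted binding curve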
T1 construct: whole, on cells; CD3 complex as on Jurkat (Clone E6-1) cells; also called CD3 expressing cells (Jurkat)

| EC50 | Binder |
| --- | --- |
| 0.917 µg/mL and 7.06 nM | B1 |
| 0.866 µg/mL and 6.66 nM | B2 |
| 2.8 µg/mL and 21.6 nM | B3 |
| 5.53 µg/mL and 42.5 nM | B4 |
| 4.59 µg/mL and 35.3 nM | B5 |

molecular target: T2, human CD3ε/δ (ACRO systems, CDD-H52W1) (human, UniProt P07766 23-126; P04234 22-105); test: BLI, antibody captured, antigen in solution;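 note: bispecific antibodies captured on AHIC biosensors to a 1.5 nm loading signal, in PBST with 0.02% detergent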
T2 construct: Bought protein; also called human CD3ϵ/CD3δ; human CD3 epsilon/delta antigen
Description: The bispecific antibodies were diluted to 5 ag/ml, and 1.5 nm protein was coupled to the surface of the AHIC sensor chip through 0.02% PBST.

| Kd | koff | kon | Binder |
| --- | --- | --- | --- |
| 2.82 nM | 0.000642 s⁻¹ | 228000 M⁻¹ s⁻¹ | B1 |
| 2.01 nM | 0.000338 s⁻¹ | 168000 M⁻¹ s⁻¹ | B2 |
| 2.23 nM | 0.000803 s⁻¹ | 360000 M⁻¹ s⁻¹ | B3 |
| 1.79 nM | 0.00047 s⁻¹ | 262000 M⁻¹ s⁻¹ | B4 |
| 3.01 nM | 0.000997 s⁻¹ |  | B5 |
